assay: soluble on expression in E. coli; label from the status in PepcDB or PDB records

Row | Sequence | soluble on expression in E. coli
1 | MNKKHYLLYGSERYALAILRPLQAAIRARGDEAAWFFDGPGAEDLAADEQLLSVAQVRLWKPYAVITSSNAVPHFFPGVKVEVFHGFNAGKPRHVYSRGFFDLYCTTGPRDTAAFGELADRLGHFAVKQTGWPKIDPFMGEMSQALVPVRQPPVILYHSTFSPSWSAADILYDEIKRLSLRGEWRWIVTFHPKMNPDVVARYRALQSEHLCFSDNDNILELFPHVDMMCSDTSSALNEFLLTCKPVVTFKNRNPGPQLIDIDDPAQFESAIRRALSRPPELLSAIRAYADAIHPYWDGRSSERVLEAIDAFVAEGGRNRRTKPLNLWRKFKLRKRIGYWGPAWL | not soluble
2 | MGSDKIHHHHHHMAKEILVAYGVDIDAVAGWLGSYGGEDSPDDISRGLFAGEVGIPRLLKLFKKYHLPATWFSPGHSIETFSEQMKMIVDAGHEVGAHGYSHENPIAMTAKQEEDVLLKSVELIKDLTGKAPTGYVAPWWEFSNITNELLLKHGFKYDHSLMHNDFTPYYVRVGDSWSKIDYSLEAKDWMKPLIRGVETDLVEIPANWYLDDLPPMMFIKKSPNSFGFVSPHDIGQMWIDQFDWVYREMDYAVFSMTIHPDVSARPQVLLMHEKIIEHINKHEGVRWVTFNEIADDFLKRNPRKK | not soluble
3 | MLVRLGYVAMSVHLKNASPSQTMTYAQFQKLDDRDAAIRKLERIANSNLENCLRLLKHNKGHDISFFRLSSKLIPLANHEELLEWNYIRPLKENLKKLGEYAVHMNMRIDFHPDHFVVLNSPEESVFKQSVKTLQMHKKLLKGMGIEHKQRCVLHVGGGYKDKELALERFIENWSNVPRGIQEMIILENDDTTFTLEETLYLGEKLDIPVVFDLHHHMMNNEQEDWYEDWARVVHTWETSLLPIKMHISSPREGKDPRAHADYINVDAFLSFLRRIKGSVPQIDCMIEAKMKDESLFQLMRDLSEQVDVEIIDGASFYIK | not soluble
4 | MTFQASGTTGITTLTVTEECRVQVGNVTATLARSKLKDDTAIGVIGVTALGCNGLQAALQADPDNYDATNLYMTSRNHDKLNVKLKATDGSSWTYGNGVFYKTEGGNWGGHVGISVDGNQTDKPTGEYTLNLTGGYWTNDNKQTFQASGTTGITTLTLEHHHHHH | soluble
5 | MLGVGKIGGAIVKSLLSCGAVVTGTGRRRETLERISRLGAEATVDNRLAAKVSDVVILSVKPYQLPRLLEEIRDVMEGKIVVSVVAGVRLSTLSRALEGSHVYRAMPNINALIGRSTTAVAEYTGDKRASFVESILSCMGSVYWIPEEWMDVWTALVGSMPAYVAVMIDSLTLGGVSAGLPREVAFKAVIDTLGATAEHLGKRDIHPSVLRDEVTTPAGTTIEGLKVIEGEGVDAALIRTVEAAARRAAAIGEAIDNEVRRSLNLRAAALEHHHHHH | not soluble
6 | MGFLWKTAKLGIKVGLVAGAVKLSIDNDIWSTNNVKGSELYQKLKKYILPGTVVFPEQLPTVEDVQLKAGGKWNSAVDSVFTTIENVPSSVNTVANRLINNK | not soluble
7 | DALNRFHDQPLNETELLALMGEMEGKISGGIHYDNVAPCYLGGVQLMLEELGIISQEVPCFDEWYWVMAYPGIKVSTAEAREILPSQYRRQDIIAHGRHLAGFIHACHSGQPELAAKMIKDVIAEPYREKLLPGFANARQ | not soluble
8 | GPGSMALPRLQMFALASRIEELVLDSVTVHPHSVVAIGNAERQGNGQPPPPSNWVPLSDLASLQKLRRLDMTNCKGDFDCAGIARCCFLRSVHLSGCNVKDADVPHLAQLPCVEELLLSRTRITNVQALAAGKGLRIIQLSNAQVDSDGIDGLQTLPYLTRLDLSSTLVSDVNCLGQSQSLIYLNLAKTHVTSEGIAGLSRLLTLEHLMLNNNNIRDVSFLAESHSLKTLSLQSTLVDSAGLEGLGRLRTLQDLSLAHTRVTNVTKLQHCRNLWRLDLQGSFVDQAGIVGLERLPKLRVLVLSKTDVASLELILKSESLEQLEVKFSHVNERSAFFGVTKASALTDVTLTHCDVSDINNLGMCKELRLLNVWSSKVTSEGIAGLCDARSLQEVDLAETAVTDISPLLSCTKIQALILYRSSVRSLDGIGALQQLRRLDIAETSVSSIRSLSACQRLEILNLSNTAVDDDGFQGIGQAQSLKVVSMSFTAITQVGQLGQCSHLEELHAQSCPVTSEGLVGLERACCLVKLNLSYTKLQSGIQRLTNCRKLLKLNVKFTEVPYDEVAYVKRHLPSCRVMNDAAQRMAKDVTLLT | not soluble
9 | MSLDDKATKPHDRLAQALAEDMAAVNALIRERMSSEHAPRIPEVTAHLIEAGGKRLRPMLTLAAARLVGYGGPFHVHLAATVEFIHTATLLHDDVVDESRQRRGRPTANLLWDNKSSVLVGDYLFARSFQLMTDTGNMRVMEILANASAVIAEGEVLQLTAAQNLATTEDIYLRVIRGKTAALFSAATEVGGIIGGAPEDQVQALFDYGDALGIAFQIVDDLLDYGGKSAEIGKNTGDDFRERKLTMPVIKAVALADEAERAFWKRVIEKGDQQDGDLEHAMALMTKHGTLEATRLAAIGWTDTARKALAKLPDHPLRQMLDDLADYVVERVREGHHHHHH | soluble
10 | VARSSKLLGWCQRQTDGYAGVNVTDLTMSWKSGLALCAIIHRYRPDLIDFDSLDEQNVEKNNQLAFDIAEKELGISPIMTGKEMASVGEPDKLSMVMYLTQFYEMFKD | soluble
11 | MGDQPFIPPPQQTALTVNDHDEVTVWNAAPCPMLPRDQVYVRVEAVAINPSDTKMRGQFATPWAFLGTDYAGTVVAVGSDVTHIQVGDRVYGAQNEMCPRTPDQGAFSQYTVTRGRVWAKIPKGLSFEQAAALPAGISTAGLAMKLLGLPLPSPSADQPPTHSKPVYVLVYGGSTATATVTMQMLRLSGYIPIATCSPHNFDLAKSRGAEEVFDYRAPNLAQTIRTYTKNNLRYALDCITNVESTTFCFAAIGRAGGHYVSLNPFPEHAATRKMVTTDWTLGPTIFGEGSTWPAPYGRPGSEEERQFGEDLWRIAGQLVEDGRLVHHPLRVVQGGFDHIKQGMELVRKGELSGEKLVVRLEGPLEHHHHHH | soluble
12 | MGSDKIHHHHHHMLQVTDVSLRFGDRKLFEDVNIKFTEGNCYGLIGANGAGKSTFLKILSGELDSQTGHVSLGKNERLAVLKQDHYAYEDERVLDVVIKGHERLYEVMKEKDEIYMKPDFSDEDGIRAAELEGEFAEMNGWNAEADAANLLSGLGIDPTLHDKKMAELENNQKIKVLLAQSLFGEPDVLLLDEPTNGLDIPAISWLEDFLINFDNTVIVVSHDRHFLNNVCTHIADLDFGKIKVYVGNYDFWYQSSQLAQKMAQEQNKKKEEKMKELQDFIARFSANASKSKQATSRKKQLEKIELDDIQPSSRRYPFVKFTPEREIGNDLLIVQNLSKTIDGEKVLDNVSFTMNPNDKAILIGDSEIAKTTLLKILAGEMEPDEGSFKWGVTTSLSYFPKDNSEFFEGVNMNLVDWLRQYAPEDEQTETFLRGFLGRMLFSGEEVKKKASVLSGGEKVRCMLSKMMLSSANVLLLDEPTNHLDLESITAVNDGLKSFKGSIIFTSYDFEFINTIANRVIDLNKQGGVSKEIPYEEYLQEIGVLK | not soluble
13 | MSGPNGDLGMPVEAGAEGEEDGFGEAEYAAINSMLDQINSCLDHLEEKNDHLHARLQELLESNRQTRLEFQQQLGEAPSDASP | soluble
14 | MRKRARIIYNPTSGKELFKRVLPDALIKLEKAGYETSAYATEKIGDATFEAERALESEYDLLIAAGGDGTLNEVVNGIAEQPNRPKLGVIPMGTVNDFGRALHLPSDIMGAIDVIIDGHTTKVDIGKMNNRYFINLAAGGKLTQVSYETPSKLKSIVGPFAYYIKGFEMLPQMKAVDVRIEYDDNIFQGEALLFLLGLTNSMAGFEKLVPDAKLDDGYFTLIIVEKANLAELGHIMTLASRGEHTKHPKVIYAKAKSINISSFTDMQLNVDGEYGGKLPANFLNLEQHIEIFTPKDVFNEELLENDTITDITPDKQ | not soluble
15 | MAHHHHHHMRDPQKNCDDVVALRETLKERAGEMAKKMKENERELFLNPMPLGISCDGLPLDTDPEFHALEVARLRERQEESCDEAKIHKLNDALNERAEDLARAKLAADRQYLNPEHLRVAVDELPLNEDRNFILKEALRQEKLQNSRESAAAIAALENELNNMAKAMAAEMLAKQRPSYLAPEHHGRRIEDLPLNDSDDFLKKERRRRDLLKQPSWDIDVVAEIDKELSEMADAMARAMNAAERPQYMKASYYDKTLSELSLDTDSIIARLEAQRARLKRNPVRNAEAIHATEAAIISRAEALAKASINVGRGGVFSASQAECRSISLTSMEANSFNLLRRRGWSS | soluble
16 | MGSDKIHHHHHHMTREYGTGEIFHQMGDRVDALHYVLEGHVVAKAVTPEGVERYVLGFLPGTIFGQSPFFNRAPAETLFVSVGHTVAVALGRDYIYGEVAQRHPSLLLNLLESDAYRHRVFGRHIADATLRDLETRLCRFILHLVTEASDPVPVEQALTDAAAEVHPRTGDEGAEGPADCPARCHSGASALFSHPGLTHEDVARYLGLHRVTVSNLLGGLRRAGVLGQFNRKVIEVCDGAELVARAGMSGDGDRWP | not soluble
17 | MGSDKIHHHHHHSGKLRKSNESGAMRAFRDGEVTIMVNVNLFTEGIDLPGVDVCIMLRPTASLSLYLQFAMRALNPRDGKRAILIDHVGNHIRHGLPNDDRYWTLEGVDKRKSSSKEKEEAPKTCENCFATFYRDRIVDGKCPYCGEPLKIIKDIEKEATNETLTLINQGMEFVSIRGEMIEVTREEALVYKRVKRYGKKYERCESLAELKAFRIIHGYAPGWLWHKQKELNLWRN | not soluble
18 | MNTNSYSMAQDNEEITKLEAPSTNKTNTLLSQSHAVVNHGDNGQINGKKTKEIHRVKRASDKKVSSKRVSRTWKIPKYPKKQPKSDQEHPGFNLDYMQPTTHPPHHN | soluble
19 | MAYLEQLQAGLRYLGRAGESGRKSLDKVVAPVNGAISEIRGAAAELENLPGVSPEMAARLQRAMRGIGQAQGKVNRVVSTYDRASRALLGIDERLDALKVQVNSAAQAVGKVAGDISPTLAGVLPSWLLAPSATPPSEAAASLPHLLVLQPLTANAQPFYFNLNTAAFDALQRNSAYNWSGQVRLGRRPALQSVGMGEESILLKGAVFPLRRQVGNQEKVVGLEQLEALRRLAERREPLILSSGYGEVQMGLWCLVRISENQSALLGNGAPRKQTFDLEFKRYGDDLPNR | not soluble

From the DeepSol protein solubility set
